# Measured values published in article PMC4669772, “The conserved Trp114 residue of thioredoxin reductase 1 has a redox sensor-like function triggering oligomerization and crosslinking upon oxidative stress related to cell death” (Cell Death & Disease, 2015).
# Columns and labels:
# [1] = target: the molecule itself; test: SEC; propensity of purified recombinant rat TrxR1 variants to form oligomers (Supplementary Figure S8); oligomers separated on Superdex G200 at 4 °C
# [2] = target: the molecule itself; test: native gel or EMSA; purified recombinant TrxR1 tetramers, native PAGE under oxidized (non-reducing) conditions; dimers to tetramer
# [3] = target: the molecule itself; test: native gel or EMSA; purified recombinant TrxR1 tetramers, native PAGE under reducing conditions
Protein,binding result [1],stoichiometry N [2],stoichiometry N [3]
"recombinant rat TrxR1 W114E (enzyme, selenocysteine (Sec, U) at 498, thioredoxin reductase 1, rat, with Trp114 changed to Glu; also called Glu114; source: E. coli BL21 (DE3) gor-, purified (2'5'-ADP Sepharose, Superdex G200 size exclusion)) MNDSKDAPKSYDFDLIIIGGGSGGLAAAKEAAKFDKKVMVLDFVTPTPLGTRWGLGGTCVNVGCIPKKLMHQAALLGQALKDSRNYGWKLEDTVKHDWEKMTESVQNHIGSLNEGYRVALREKKVVYENAYGKFIGPHKIMATNNKGKEKVYSAERFLIATGERPRYLGIPGDKEYCISSDDLFSLPYCPGKTLVVGASYVALECAGFLAGIGLDVTVMVRSILLRGFDQDMANKIGEHMEEHGIKFIRQFVPTKIEQIEAGTPGRLKVTAKSTNSEETIEDEFNTVLLAVGRDSCTRTIGLETVGVKINEKTGKIPVTDEEQTNVPYIYAIGDILEGKLELTPVAIQAGRLLAQRLYGGSTVKCDYDNVPTTVFTPLEYGCCGLSEEKAVEKFGEENIEVYHSFFWPLEWTVPSRDNNKCYAKVICNLKDNERVVGFHVLGPNAGEVTQGFAAALKCGLTKQQLDSTIGIHPVCAEIFTTLSVTKRSGGDILQSGCUG",binds,,
"recombinant rat TrxR1 W114F (enzyme, selenocysteine (Sec, U) at 498, thioredoxin reductase 1, rat, with Trp114 changed to Phe; also called Phe114; source: E. coli BL21 (DE3) gor-, purified (2'5'-ADP Sepharose, Superdex G200 size exclusion)) MNDSKDAPKSYDFDLIIIGGGSGGLAAAKEAAKFDKKVMVLDFVTPTPLGTRWGLGGTCVNVGCIPKKLMHQAALLGQALKDSRNYGWKLEDTVKHDWEKMTESVQNHIGSLNFGYRVALREKKVVYENAYGKFIGPHKIMATNNKGKEKVYSAERFLIATGERPRYLGIPGDKEYCISSDDLFSLPYCPGKTLVVGASYVALECAGFLAGIGLDVTVMVRSILLRGFDQDMANKIGEHMEEHGIKFIRQFVPTKIEQIEAGTPGRLKVTAKSTNSEETIEDEFNTVLLAVGRDSCTRTIGLETVGVKINEKTGKIPVTDEEQTNVPYIYAIGDILEGKLELTPVAIQAGRLLAQRLYGGSTVKCDYDNVPTTVFTPLEYGCCGLSEEKAVEKFGEENIEVYHSFFWPLEWTVPSRDNNKCYAKVICNLKDNERVVGFHVLGPNAGEVTQGFAAALKCGLTKQQLDSTIGIHPVCAEIFTTLSVTKRSGGDILQSGCUG",binds,,
"recombinant rat TrxR1 W114R (enzyme, selenocysteine (Sec, U) at 498, thioredoxin reductase 1, rat, with Trp114 changed to Arg; also called Arg114; source: E. coli BL21 (DE3) gor-, purified (2'5'-ADP Sepharose, Superdex G200 size exclusion)) MNDSKDAPKSYDFDLIIIGGGSGGLAAAKEAAKFDKKVMVLDFVTPTPLGTRWGLGGTCVNVGCIPKKLMHQAALLGQALKDSRNYGWKLEDTVKHDWEKMTESVQNHIGSLNRGYRVALREKKVVYENAYGKFIGPHKIMATNNKGKEKVYSAERFLIATGERPRYLGIPGDKEYCISSDDLFSLPYCPGKTLVVGASYVALECAGFLAGIGLDVTVMVRSILLRGFDQDMANKIGEHMEEHGIKFIRQFVPTKIEQIEAGTPGRLKVTAKSTNSEETIEDEFNTVLLAVGRDSCTRTIGLETVGVKINEKTGKIPVTDEEQTNVPYIYAIGDILEGKLELTPVAIQAGRLLAQRLYGGSTVKCDYDNVPTTVFTPLEYGCCGLSEEKAVEKFGEENIEVYHSFFWPLEWTVPSRDNNKCYAKVICNLKDNERVVGFHVLGPNAGEVTQGFAAALKCGLTKQQLDSTIGIHPVCAEIFTTLSVTKRSGGDILQSGCUG",binds,,
"recombinant rat TrxR1 W114G (enzyme, selenocysteine (Sec, U) at 498, thioredoxin reductase 1, rat, with Trp114 changed to Gly; also called Gly114; source: E. coli BL21 (DE3) gor-, purified (2'5'-ADP Sepharose, Superdex G200 size exclusion)) MNDSKDAPKSYDFDLIIIGGGSGGLAAAKEAAKFDKKVMVLDFVTPTPLGTRWGLGGTCVNVGCIPKKLMHQAALLGQALKDSRNYGWKLEDTVKHDWEKMTESVQNHIGSLNGGYRVALREKKVVYENAYGKFIGPHKIMATNNKGKEKVYSAERFLIATGERPRYLGIPGDKEYCISSDDLFSLPYCPGKTLVVGASYVALECAGFLAGIGLDVTVMVRSILLRGFDQDMANKIGEHMEEHGIKFIRQFVPTKIEQIEAGTPGRLKVTAKSTNSEETIEDEFNTVLLAVGRDSCTRTIGLETVGVKINEKTGKIPVTDEEQTNVPYIYAIGDILEGKLELTPVAIQAGRLLAQRLYGGSTVKCDYDNVPTTVFTPLEYGCCGLSEEKAVEKFGEENIEVYHSFFWPLEWTVPSRDNNKCYAKVICNLKDNERVVGFHVLGPNAGEVTQGFAAALKCGLTKQQLDSTIGIHPVCAEIFTTLSVTKRSGGDILQSGCUG",binds,,
"recombinant rat thioredoxin reductase 1 (TrxR1), wild type (enzyme, selenocysteine (Sec, U) at 498, thioredoxin reductase 1, rat, expressed from a pET-TRSTER-derived plasmid with pSUABC; FAD-containing homodimer; tetramers (two dimers) were purified from the same preparation in the absence of reductant; In the tetramer two of the four Trp114 are modified (oxidised) and linked; also called WT; wild-type TrxR1; source: E. coli BL21 (DE3) gor-, purified (2'5'-ADP Sepharose, Superdex G200 size …)) MNDSKDAPKSYDFDLIIIGGGSGGLAAAKEAAKFDKKVMVLDFVTPTPLGTRWGLGGTCVNVGCIPKKLMHQAALLGQALKDSRNYGWKLEDTVKHDWEKMTESVQNHIGSLNWGYRVALREKKVVYENAYGKFIGPHKIMATNNKGKEKVYSAERFLIATGERPRYLGIPGDKEYCISSDDLFSLPYCPGKTLVVGASYVALECAGFLAGIGLDVTVMVRSILLRGFDQDMANKIGEHMEEHGIKFIRQFVPTKIEQIEAGTPGRLKVTAKSTNSEETIEDEFNTVLLAVGRDSCTRTIGLETVGVKINEKTGKIPVTDEEQTNVPYIYAIGDILEGKLELTPVAIQAGRLLAQRLYGGSTVKCDYDNVPTTVFTPLEYGCCGLSEEKAVEKFGEENIEVYHSFFWPLEWTVPSRDNNKCYAKVICNLKDNERVVGFHVLGPNAGEVTQGFAAALKCGLTKQQLDSTIGIHPVCAEIFTTLSVTKRSGGDILQSGCUG",,4,2
